# System: PCBP2
# Assay: competition EMSA
substance,measurement,value
poliovirus stem-loop IV RNA,Kd,15 nM

# Source: publication PMC2694229
